Data as given in patent US20110263454A1, “Methods of Identifying Functional Characteristics of Promoters, Transcription Modifying Proteins and Transcription Modulating Agents” (Salk Institute for Biological Studies, priority 2008, published 2011).

Legend:
mLeptin promoter = experiment: NHR-promoter luciferase screen, mLeptin promoter; assay type: cell-based, mouse; details: for Luc. act., normalized to lacZ / Normalized Luc. act., normalized to control: Table 7, mLeptin; for Results of assays of transcription factor (+/- ligand) with mLeptin: Table 6d, luciferase activity relative to control (control = 1.00)
Outline: (§1)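 CV-1 cells were co-transfected with 50 ng NHR (homodimer or NHR/RXR heterodimer), 100 ng promoter-luciferase construct and 50 ng LacZ. Luciferase was normalized to LacZ and to a no-NHR/no-ligand control.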

mPer1 promoter = experiment: NHR-promoter luciferase screen, mPer1 promoter; assay type: cell-based, mouse; details: for Luc. act., normalized to lacZ / Normalized Luc. act., normalized to control: Per1 promoter reporter, co-transfected HR, with or without its ligand; for Normalized Luc. act., normalized to control: relative to control; for luciferase activity normalized to lacZ activity and to a control, mPer1: mPer1 promoter-luciferase, CV-1 cells, NHR +/- ligand, control = 1.00
Outline: as §1

mNPY promoter = experiment: NHR-promoter luciferase screen, mNPY promoter; assay type: cell-based, mouse; details: for Results of assays of transcription factor (+/- ligand) with mNPY: Table 6d, luciferase activity relative to control (control = 1.00); for Luc. act., normalized to lacZ / Normalized Luc. act., normalized to control: mNPY promoter, HR component with or without ligand; for Normalized Luc. act., normalized to control: relative to control
Outline: as §1

hPPARg1 promoter = experiment: NHR-promoter luciferase screen, hPPARg1 promoter; assay type: cell-based, human; details: for Luc. act., normalized to lacZ / Normalized Luc. act., normalized to control: PPARG1 promoter, hormone receptor with or without its ligand; for Normalized Luc. act., normalized to control: relative to control; for Results of assays of transcription factor (+/- ligand) with hPPARg1: Table 6d, luciferase activity relative to control (control = 1.00)
Outline: as §1

hPPARg2 promoter = experiment: NHR-promoter luciferase screen, hPPARg2 promoter; assay type: cell-based, human; details: for Luc. act., normalized to lacZ / Normalized Luc. act., normalized to control: PPARG2 promoter, hormone receptor with or without its ligand; for Normalized Luc. act., normalized to control: relative to control; for Results of assays of transcription factor (+/- ligand) with hPPARg2: Table 6d, luciferase activity relative to control (control = 1.00)
Outline: as §1

B1: FXR: Farnesoid X Receptor (NR1H4), cDNA driver (protein, UniProt Q96RI1 1-486, looked up)
Bile acid receptor: MVMQFQGLENPIQISPHCSCTPSGFFMEMMSMKPAKGVLTEQVAGPLGQNLEVEPYSQYSNVQFPQVQPQISSSSYYSNLGFYPQQPEEWYSPGIYELRRMPAETLYQGETEVAEMPVTKKPRMGASAGRIKGDELCVVCGDRASGYHYNALTCEGCKGFFRRSITKNAVYKCKNGGNCVMDMYMRRKCQECRLRKCKEMGMLAECMYTGLLTEIQCKSKRLRKNVKQHADQTVNEDSEGRDLRQVTSTTKSCREKTELTPDQQTLLHFIMDSYNKQRMPQEITNKILKEEFSAEENFLILTEMATNHVQVLVEFTKKLPGFQTLDHEDQIALLKGSAVEAMFLRSAEIFNKKLPSGHSDLLEERIRNSGISDEYITPMFSFYKSIGELKMTQEEYALLTAIVILSPDRQYIKDREAVEKLQEPLLDVLQKLCKIHQPENPQHFACLLGRLTELRTFNHHHAEMLMSWRVNDHKFTPLLCEIWDVQ
In the case of B1, the “Luc. act., normalized to lacZ” value (mLeptin promoter) is reported as 2.8, the “Normalized Luc. act., normalized to control” value (mLeptin promoter) is reported as 0.9 and the “Results of assays of transcription factor (+/- ligand) with mLeptin” value (from here on “Results of assays … with mLeptin”) (mLeptin promoter) is reported as 0.95. The “Luc. act., normalized to lacZ” value (mPer1 promoter) was 98.0, the “Normalized Luc. act., normalized to control” value (mPer1 promoter) was 0.7 and the “luciferase activity normalized to lacZ activity and to a control, mPer1” value (shortened to “luciferase activity normalized”) (mPer1 promoter) was 0.68. For the same molecule, the “Results of assays of transcription factor (+/- ligand) with mNPY” value (from here on “Results of assays … with mNPY”) (mNPY promoter) was 0.92, the “Luc. act., normalized to lacZ” value (mNPY promoter) was 77.7 and the “Normalized Luc. act., normalized to control” value (mNPY promoter) was 0.9. The “Luc. act., normalized to lacZ” value (hPPARg1 promoter) was 54.8, the “Normalized Luc. act., normalized to control” value (hPPARg1 promoter) was 0.8 and the “Results of assays of transcription factor (+/- ligand) with hPPARg1” value (“Results of assays … with hPPARg1” below) (hPPARg1 promoter) was 0.80. For the same molecule, the “Luc. act., normalized to lacZ” value (hPPARg2 promoter) was 1.8, the “Normalized Luc. act., normalized to control” value (hPPARg2 promoter) was 0.9 and the “Results of assays of transcription factor (+/- ligand) with hPPARg2” value (from here on “Results of assays … with hPPARg2”) (hPPARg2 promoter) was 0.89.

B2: PXR: Pregnane X Receptor (NR1I2), cDNA driver (protein, UniProt O75469 1-434, looked up)
Nuclear receptor subfamily 1 …: MEVRPKESWNHADFVHCEDTESVPGKPSVNADEEVGGPQICRVCGDKATGYHFNVMTCEGCKGFFRRAMKRNARLRCPFRKGACEITRKTRRQCQACRLRKCLESGMKKEMIMSDEAVEERRALIKRKKSERTGTQPLGVQGLTEEQRMMIRELMDAQMKTFDTTFSHFKNFRLPGVLSSGCELPESLQAPSREEAAKWSQVRKDLCSLKVSLQLRGEDGSVWNYKPPADSGGKEIFSLLPHMADMSTYMFKGIISFAKVISYFRDLPIEDQISLLKGAAFELCQLRFNTVFNAETGTWECGRLSYCLEDTAGGFQQLLLEPMLKFHYMLKKLQLHEEEYVLMQAISLFSPDRPGVLQHRVVDQLQEQFAITLKSYIECNRPQPAHRFLFLKIMAMLTELRSINAQHTQRLLRIQDIHPFATPLMQELFGITGS
With B2 the “Luc. act., normalized to lacZ” value (mLeptin promoter) was 4.1, the “Normalized Luc. act., normalized to control” value (mLeptin promoter) was 1.4 and the “Results of assays … with mLeptin” value (mLeptin promoter) was 1.40. The “Luc. act., normalized to lacZ” value (mPer1 promoter) was 186.7, the “Normalized Luc. act., normalized to control” value (mPer1 promoter) was 1.3 and the “luciferase activity normalized” value (mPer1 promoter) was 1.30. For the same molecule, the “Results of assays … with mNPY” value (mNPY promoter) was 0.83, the “Luc. act., normalized to lacZ” value (mNPY promoter) was 69.8 and the “Normalized Luc. act., normalized to control” value (mNPY promoter) was 0.8. The “Luc. act., normalized to lacZ” value (hPPARg1 promoter) was 63.3, the “Normalized Luc. act., normalized to control” value (hPPARg1 promoter) was 0.9 and the “Results of assays … with hPPARg1” value (hPPARg1 promoter) was 0.92. The “Luc. act., normalized to lacZ” value (hPPARg2 promoter) was 1.8, the “Normalized Luc. act., normalized to control” value (hPPARg2 promoter) was 0.9 and the “Results of assays … with hPPARg2” value (hPPARg2 promoter) was 0.91.

B3: CAR: Constitutive Androstane Receptor (NR1I3), cDNA driver (protein, UniProt Q14994 1-352, looked up)
Nuclear receptor subfamily 1 …: MASREDELRNCVVCGDQATGYHFNALTCEGCKGFFRRTVSKSIGPTCPFAGSCEVSKTQRRHCPACRLQKCLDAGMRKDMILSAEALALRRAKQAQRRAQQTPVQLSKEQEELIRTLLGAHTRHMGTMFEQFVQFRPPAHLFIHHQPLPTLAPVLPLVTHFADINTFMVLQVIKFTKDLPVFRSLPIEDQISLLKGAAVEICHIVLNTTFCLQTQNFLCGPLRYTIEDGARVSPTVGFQVEFLELLFHFHGTLRKLQLQEPEYVLLAAMALFSPDRPGVTQRDEIDQLQEEMALTLQSYIKGQQRRPRDRFLYAKLLGLLAELRSINEAYGYQIQHIQGLSAMMPLLQEICS
In the case of B3, the “Luc. act., normalized to lacZ” value (mLeptin promoter) is reported as 2.7, the “Normalized Luc. act., normalized to control” value (mLeptin promoter) is reported as 0.9 and the “Results of assays … with mLeptin” value (mLeptin promoter) is reported as 0.93. The “Luc. act., normalized to lacZ” value (mPer1 promoter) was 86.6, the “Normalized Luc. act., normalized to control” value (mPer1 promoter) was 0.6 and the “luciferase activity normalized” value (mPer1 promoter) was 0.60. For the same molecule, the “Results of assays … with mNPY” value (mNPY promoter) was 0.88, the “Luc. act., normalized to lacZ” value (mNPY promoter) was 74.2 and the “Normalized Luc. act., normalized to control” value (mNPY promoter) was 0.9. For the same molecule, the “Luc. act., normalized to lacZ” value (hPPARg1 promoter) was 46.4, the “Normalized Luc. act., normalized to control” value (hPPARg1 promoter) was 0.7 and the “Results of assays … with hPPARg1” value (hPPARg1 promoter) was 0.67. The “Luc. act., normalized to lacZ” value (hPPARg2 promoter) was 1.3, the “Normalized Luc. act., normalized to control” value (hPPARg2 promoter) was 0.6 and the “Results of assays … with hPPARg2” value (hPPARg2 promoter) was 0.63.

B4: RXRb: Retinoic X Receptor β (NR2B2), cDNA driver (protein, UniProt P28702 1-533, looked up)
Retinoic acid receptor …: MSWAARPPFLPQRHAAGQCGPVGVRKEMHCGVASRWRRRRPWLDPAAAAAAAVAGGEQQTPEPEPGEAGRDGMGDSGRDSRSPDSSSPNPLPQGVPPPSPPGPPLPPSTAPSLGGSGAPPPPPMPPPPLGSPFPVISSSMGSPGLPPPAPPGFSGPVSSPQINSTVSLPGGGSGPPEDVKPPVLGVRGLHCPPPPGGPGAGKRLCAICGDRSSGKHYGVYSCEGCKGFFKRTIRKDLTYSCRDNKDCTVDKRQRNRCQYCRYQKCLATGMKREAVQEERQRGKDKDGDGEGAGGAPEEMPVDRILEAELAVEQKSDQGVEGPGGTGGSGSSPNDPVTNICQAADKQLFTLVEWAKRIPHFSSLPLDDQVILLRAGWNELLIASFSHRSIDVRDGILLATGLHVHRNSAHSAGVGAIFDRVLTELVSKMRDMRMDKTELGCLRAIILFNPDAKGLSNPSEVEVLREKVYASLETYCKQKYPEQQGRFAKLLLRLPALRSIGLKCLEHLFFFKLIGDTPIDTFLMEMLEAPHQLA
In the case of B4, the “Luc. act., normalized to lacZ” value (mLeptin promoter) is reported as 1.5, the “Normalized Luc. act., normalized to control” value (mLeptin promoter) is reported as 0.5 and the “Results of assays … with mLeptin” value (mLeptin promoter) is reported as 0.50. The “Luc. act., normalized to lacZ” value (mPer1 promoter) was 50.5, the “Normalized Luc. act., normalized to control” value (mPer1 promoter) was 0.4 and the “luciferase activity normalized” value (mPer1 promoter) was 0.35. The “Results of assays … with mNPY” value (mNPY promoter) was 0.80, the “Luc. act., normalized to lacZ” value (mNPY promoter) was 66.9 and the “Normalized Luc. act., normalized to control” value (mNPY promoter) was 0.8. For the same molecule, the “Luc. act., normalized to lacZ” value (hPPARg1 promoter) was 23.1, the “Normalized Luc. act., normalized to control” value (hPPARg1 promoter) was 0.3 and the “Results of assays … with hPPARg1” value (hPPARg1 promoter) was 0.34. The “Luc. act., normalized to lacZ” value (hPPARg2 promoter) was 1.5, the “Normalized Luc. act., normalized to control” value (hPPARg2 promoter) was 0.8 and the “Results of assays … with hPPARg2” value (hPPARg2 promoter) was 0.75.

B5: RXRg: Retinoic X Receptor γ (NR2B3), cDNA driver (protein, UniProt P48443 1-463, looked up)
Retinoic acid receptor …: MYGNYSHFMKFPAGYGGSPGHTGSTSMSPSAALSTGKPMDSHPSYTDTPVSAPRTLSAVGTPLNALGSPYRVITSAMGPPSGALAAPPGINLVAPPSSQLNVVNSVSSSEDIKPLPGLPGIGNMNYPSTSPGSLVKHICAICGDRSSGKHYGVYSCEGCKGFFKRTIRKDLIYTCRDNKDCLIDKRQRNRCQYCRYQKCLVMGMKREAVQEERQRSRERAESEAECATSGHEDMPVERILEAELAVEPKTESYGDMNMENSTNDPVTNICHAADKQLFTLVEWAKRIPHFSDLTLEDQVILLRAGWNELLIASFSHRSVSVQDGILLATGLHVHRSSAHSAGVGSIFDRVLTELVSKMKDMQMDKSELGCLRAIVLFNPDAKGLSNPSEVETLREKVYATLEAYTKQKYPEQPGRFAKLLLRLPALRSIGLKCLEHLFFFKLIGDTPIDTFLMEMLETPLQIT
With B5 the “Luc. act., normalized to lacZ” value (mLeptin promoter) was 2.1, the “Normalized Luc. act., normalized to control” value (mLeptin promoter) was 0.7 and the “Results of assays … with mLeptin” value (mLeptin promoter) was 0.70. The “Luc. act., normalized to lacZ” value (mPer1 promoter) was 94.5, the “Normalized Luc. act., normalized to control” value (mPer1 promoter) was 0.7 and the “luciferase activity normalized” value (mPer1 promoter) was 0.66. For the same molecule, the “Results of assays … with mNPY” value (mNPY promoter) was 0.97, the “Luc. act., normalized to lacZ” value (mNPY promoter) was 81.2 and the “Normalized Luc. act., normalized to control” value (mNPY promoter) was 1.0. The “Luc. act., normalized to lacZ” value (hPPARg1 promoter) was 43.7, the “Normalized Luc. act., normalized to control” value (hPPARg1 promoter) was 0.6 and the “Results of assays … with hPPARg1” value (hPPARg1 promoter) was 0.63. The “Luc. act., normalized to lacZ” value (hPPARg2 promoter) was 1.5, the “Normalized Luc. act., normalized to control” value (hPPARg2 promoter) was 0.7 and the “Results of assays … with hPPARg2” value (hPPARg2 promoter) was 0.74.
